# Data taken from the supplement of paper PMC9170038.
# Tested on: MS2 coat protein
# Experiment: apparent KD of MS2 coat protein; higher = weaker reporter binding
# Settings: Eterna round: R107; input ligand: theophylline 2 mM
# How it was run: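 Apparent KD stands for the median, per design, of fits to normalised cluster binding curves. The curves came from titrating on-chip-transcribed RNA switches on Illumina sequencing clusters with SNAP-549-labelled MS2 coat protein, twofold from 0.7 or 1.5 nM to 3 µM. Buffer was 100 mM Tris-HCl pH 7.5, 80 mM KCl, 4 mM MgCl2, without or with constant ligand.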
row,Sequence,apparent KD of MS2 coat protein [µM]
1,AUACAUGAGGAUCACCCAUGUCAUUCAGAAGGAGCGUCAUUAUUGACAGGUAGGUCGCUGAUAAAAUUUUUAUACAUUAUGUUUA [JR_SSArginiA_Sub014],0.0181
2,UGUAUGGGAACAUGAGGAUCACCCAUGUGGCGAGGACCGGUACGGCCGCCACUCGAGCAGCAAGCGUGUAUGACGCUGCUGCAUG [ss-trypA-0mod],0.324
3,"ACUAGAGGUGGAAGGAGCGGGAGACAUGAGGAUCACAUGAGGAUCACCCAUGUAGGAUCAUCCCAGGUAGGUCGCCAUGUCGAAA [,mmlmullin]",0.456
4,GGAUAGGACGGAAGGAGCGACGUGAGGCUAAUGUCCAGUCUUCUACAUGAGGAUCACCCAUGUCAGGUAGGUCGCCGUCCUAUCG [#21 Exclusion - Arginine B],0.0407
5,GCCAUCGGCGGAAGCCGAUGGUAUACAGAAGGAGCGUAGGAAACUACAGGUAGGUCGCUGGACAUGAGGAUCACCCAUGUAAUAG [#27 Same State - Arginine A],0.0175
6,UUCUUUGACGAUCUGGGUUUACCAGAUCGACGAGGACCGGUACGGCCGCCACUCGUGUUUUCUUUACAUGAGGAUCACCCAUGUU [#16Tryptophan A Same State],0.0191
7,ACAUGAGGAUCACCCAUGUGGCGAGUUGAUACCAGACCCGCACUAGUCCCUUGGCAGCAACUACGUGUGGGACACCCAUGUUAAG [qpqmullin],0.0771
8,AAACAUGAGGAUCACCCAUGUUGAGGAUCACGAGGACCGGUACGGCCGCCACUCGACAUGAGGAUCACCCAUGUGAGGAUCACCC [Same State - Tryptophan A #1],0.337

# Same assay, conditions: Eterna round: R107; input ligand: tryptophan 2.4 mM
row,Sequence,apparent KD of MS2 coat protein [µM]
1,UUAAUCUUGGAUGAAAACAUUUAAGCAGAAGGAGCGUGAUAAAACACAGGUAGGUCGCUGAAGGGAACAUGAGGAUCACCCAUGU [AstrosSSArgA#15],0.0329
2,GCCUAGCAGCGAAGGAGCGAGGUAACUUAAUAAAUAAAUACAAGAGGAUCACCCUUGUUUCCUCAGGUAGGUCGCGCUGCUAGGC [SSAB Alternative Aptamer #2 NP+V+V2],0.0235
3,ACGACGCAUACAGAUACCAGUAGAACAUGAGGAUCACCCAUGUCUGAGGCGCUCCGCCACUGCCCUUGGCAGCUGUAUGCGUCAG [SSTheo B #11],0.00981
4,GGUCUGUGGAGCGAUACCAGCUUGAGUGUACUGGCCAGGUACAUGAGGAUCACCCAUGUAAGCCCUUGGCAGCGCUCCAGAGACC [#1 Exclusion - Theophylline B Attempt #17 (HarryS)],0.0109
5,GGGUGCGGGAUAGAUACCAGUGCCUUAAAAUAGGCACAUGAGGAUCACCCAUGUACCGGGCGCCCUUGGCAGCUAGUACCAUCCA [Edanrele],0.147
6,UGAUGGUUCGGAAGGAGCGUGUAAGAACAAGAACAUGAGGAUCACCCAUGUAUUAAUUUAACACAGGUAGGUCGCCGAGUUAUUG [11.I],0.017
7,ACUCGGUGUUUGUUGCUCCGAGUGUAUGAUACCAGUUAGUUUUAUGGCCCUUGGCAGCAUAGGACAUGAGGAUCACCCAUGUGUU [#02 SameState-TheophyllineA],0.0349
8,CGAUGAUCGAGGGAUACCAGAAAUGGUAUUCCUUUAUUUCUUACAUGAGGAUCACCCAUGUUCCCUUGGCAGCUUUUGAUCAUCG [ETHB #7],0.0746
9,CUCUGGUGCUGAGUGAGUGUCGUGACUGAUACCAGAUGCCUUUACAUCCCUUGGCAGCAGUACAUGAGGAUCACCCAUGUAUUCC [Rireusrama],0.0211
10,ACAUGAGGAUCACCCAUGUAGUGGCACGAUACCAGCUGAUCCCGUGGCCCUUGGCAGCGUCCGGUGUGGUCUGCCGGGAUGGAGC [WBWMULLIN],0.0248
11,UUGACAUGAGGAUCACCCAUGUAAACUGAAGGAGCGUCGAAAAUGACAGGUAGGUCGCAGAAUAAUAAUGGUGAUCGUAAAUAUU [#12 Exclusion - Arginine A],0.063
12,CGAACAUGAGGAUCACCCAUGUUAACCGAAGGAGCGGCGCAUAAGUCAGGUAGGUCGCGGUAGAUGAAAUAGAGCAGUGGUGACA [#01 Same State - Arginine A],0.027
13,UGUAUGGACUGAAGGAGCGGGUAAUAAACUUGAGGAUCACCCAGGUAAUAGGCGAAAGCCACCCAGGUAGGUCGCAGUCCAUACU,0.0256
14,UUAGUAACGACGGCCGCCACUGAUUUUGGACAUGAGGAUCACCCAUGUAAAGAUCCUAGAAUGGUCAGGACCGGGUCUGAUAAUG [Exclusion Tryptophane B GF4],0.0644
15,UUAAUGAUAUAUCAUAUGAUAUAUCCAGAAGGAGCGUCAUAAAUGGCAGGUAGGUCGCUGAAGGCAACAUGAGGAUCACCCAUGU [#16 Same State - Arginine A],0.0244
16,AUACAUGAGGAUCACCCAUGUCAUUCAGAAGGAGCGUCAUUAUUGACAGGUAGGUCGCUGAUAAAAUUUUUAUACAUUAUGUUUA [JR_SSArginiA_Sub014],0.0173
17,UGUAUGGGAACAUGAGGAUCACCCAUGUGGCGAGGACCGGUACGGCCGCCACUCGAGCAGCAAGCGUGUAUGACGCUGCUGCAUG [ss-trypA-0mod],0.136
18,"ACUAGAGGUGGAAGGAGCGGGAGACAUGAGGAUCACAUGAGGAUCACCCAUGUAGGAUCAUCCCAGGUAGGUCGCCAUGUCGAAA [,mmlmullin]",0.293
19,ACACGUGACAAGGAUACCAGCCUGGCUAGUUCAAACCCUCACAUGAGGAUCACCCAUGUAGGCCCUUGGCAGCCUAUAGUCUAAG [theeternabot_exclusion_MS2_Theo_B_38],0.0299
20,AAAUAAAUCACAUGAGGAUCACCCAUGGAUACCAGGCCUGGAAACAGCCCUUGGCAGCCACAUGAGGAUCACCCAUGUGCUAAAU [MAT - Exclusion Theophlline A - Mod of Eli - D2],0.14
21,AUAUGAUCAUAUGAUACCAGAAAUGGUAUUCCUUUGUUUCUUACAUGAGGAUCACCCAUGUUCCCUUGGCAGCAUAUGAUCAUAU [ETHB #2],0.238
22,GGAUAGGACGGAAGGAGCGACGUGAGGCUAAUGUCCAGUCUUCUACAUGAGGAUCACCCAUGUCAGGUAGGUCGCCGUCCUAUCG [#21 Exclusion - Arginine B],0.0418
23,CUGCUACAUGAGGAUCACCCAUGUGGAGAUACCAGCCUGAACGAUGGCCCUUGGCAGCUCUUAGCUGGUGAUCAUAUAUUUCAGA [Zazaat],0.0282
24,GCCAUCGGCGGAAGCCGAUGGUAUACAGAAGGAGCGUAGGAAACUACAGGUAGGUCGCUGGACAUGAGGAUCACCCAUGUAAUAG [#27 Same State - Arginine A],0.0218
25,ACAUGAGGAUCACCCAUGUGGCGAGUUGAUACCAGACCCGCACUAGUCCCUUGGCAGCAACUACGUGUGGGACACCCAUGUUAAG [qpqmullin],0.0395
26,CGGUUUGUGAUGGAUACCAGCAGAGAGAAUGUUUAUCCUGACAUGAGGAUCACCCAUGUGUGCCCUUGGCAGCUGUUGUGGGCUG [8.Y],0.0558
